{"source": "paper PMC6822988", "about": "“Native adiponectin in serum binds to mammalian cells expressing T-cadherin, but not AdipoRs or calreticulin” (eLife, 2019)", "molecules": {"B1": {"name": "Full-length mammalian recombinant mouse adiponectin (ligand, UniProt Q60994 18-247, looked up)", "chain": "EDDVTTTEELAPALVPPPKGTCAGWMAGIPGHPGHNGTPGRDGRDGTPGEKGEKGDAGLLGPKGETGDVGMTGAEGPRGFPGTPGRKGEPGEAAYVYRSAFSVGLETRVTVPNVPIRFTKIFYNQQNHYDGSTGKFYCNIPGLYYFSYHITVYMKDVKVSLFKKDKAVLFTYDQYQEKNVDQASGSVLLHLEVGDQVWLQVYGDGDHNGLYADNVNDSTFTGFLLYHDTN", "notes": "adiponectin, mouse, full-length recombinant, produced in HEK293 cells; contains less 6-mer and HMW multimer than serum adiponectin; the secreted product probably lacks the signal peptide; also called recombinant adiponectin; full-length recombinant adiponectin produced in HEK293 cells; source: bought: BioVendor (RD272023100), produced in HEK293 cells"}, "B2": {"name": "native mouse adiponectin in mouse serum (ligand, UniProt Q60994 18-247, looked up)", "chain": "B1 chain", "notes": "adiponectin, mouse, circulating protein of serum; multimers (6-mer and HMW multimer) seen by native-PAGE; Used both as whole serum and as adiponectin purified from serum; Mixture of multimers; also called mouse serum adiponectin; native adiponectin; source: endogenous, serum of C57BL6J mice, used as serum without processing; also purified from mouse serum (Fukuda et al., 2017)"}}, "key": {"[1]": {"molecular_target": "adiponectin (HMW) (Homo sapiens) (UniProt Q15848)", "sequence (Q15848 19-244)": "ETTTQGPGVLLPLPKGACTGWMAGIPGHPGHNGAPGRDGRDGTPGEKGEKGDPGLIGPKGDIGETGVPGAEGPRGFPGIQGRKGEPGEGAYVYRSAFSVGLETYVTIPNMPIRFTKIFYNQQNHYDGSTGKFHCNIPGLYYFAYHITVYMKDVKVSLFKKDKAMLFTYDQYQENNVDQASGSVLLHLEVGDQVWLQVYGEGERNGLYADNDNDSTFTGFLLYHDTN", "settings": "cited from earlier work"}, "[2]": {"molecular_target": "the molecule itself", "experiment": "native gel or EMSA; native-PAGE of purified or recombinant adiponectin, 50 ng adiponectin, Western blot"}, "[3]": {"molecular_target": "the molecule itself", "experiment": "native gel or EMSA; native-PAGE of mouse serum, 50 ng adiponectin, Western blot"}}}
{"molecule": "T-cadherin (from UniProt P55290)", "values": [{"measurement": "Kd", "setting": "[1]", "value": 1, "unit": "nM"}]}
{"molecule": "B1", "values": [{"measurement": "binding result", "setting": "[2]", "value": "binds"}]}
{"molecule": "B2", "values": [{"measurement": "binding result", "setting": "[3]", "value": "binds"}]}
